Source: the DeepSol protein solubility set

assay: soluble on expression in E. coli; label from the status in PepcDB or PDB records

| Sequence | soluble on expression in E. coli |
| --- | --- |
| MSLSNDRYSMSFTTGSLFHRESVKLAALYLDLGDWNSVRDKVIAENLLQTRTLNTLKRVCREIISRLRTMNPGELDFLVEGSHQEQAYLLWLAVCRRYRFIADFAVEVLRERYITLKADLTHEDFDSFFNRKSEWHLELDEITPATRSKLRQVLFKILREADLLAANNMINAAMLSPRLSDVIHRGSRRDVSYFPLFESDLKGMAKEGHHHHHH | soluble |
| SKKFSWNTSFNFTRNVNKVEKLENPYVYGSRDMVRNEEGYALYSFWMYNQLYVDKQTGQAVFEDVNGDGQITVADRKIMGNANPKFFGGLTNTFKYAGFDLNVFFVYQYGNKVVSFDRILNEGGGTKDNNRGIFEYNMNRWQKPGDDTDVPRVTSVGNNYGIEQNSRFLEDGSFIRLKTLTLGYTVPVDFTKKYSVQSVRFFVTGTNLLLFTKYKGPDPEAVHTSEQNARGIDVGTPPQPVSVQGGLTITL | not soluble |
| MNVGIKGFGAYAPEKIIDNAYFEQFLDTSDEWISKMTGIKERHWADDDQDTSDLAYEASVKAIADAGIQPEDIDMIIVATATGDMPFPTVANMLQERLGTGKVASMDQLAACSGFMYSMITAKQYVQSGDYHNILVVGADKLSKITDLTDRSTAVLFGDGAGAVIIGEVSEGRGIISYEMGSDGTGGKHLYLDKDTGKLKMNGREVFKFAVRIMGDASTRVVEKANLTSDDIDLFIPHQANIRIMESARERLGISKDKMSVSVNKYGNTSAASIPLSIDQELKNGKLKDDDTIVLVGFGGGLTWGAMTIKWGK | soluble |
| MGSDKIHHHHHHMPQDRPTAAQLWSGEISFFSLDTDLIQSAGYSFDAGVLNQLPQVFPKTMQLLLTEVTAREIVSHLMKSVTQAMGEFRKGSDTLKRSVGIDMDQIDKLFEALSVVSSAEAVFRERVDSYAERCRGEVLPIGGGDMMPRIFERYFAGLPPFGARKDKKAEFPDAMSLLLLEDYARDHGTRGVVASRDEGWSEFAGKSEYLYCVKSLDALIALFEATGEHAKTLADRIASAVEDENSFVRAALLDGFRTHIHESSWNVENVYSGVVPRVEAATCEADVISHVLQSDRTKVWNLEEDKSVWVVELTASLTVEVQIDVTFYVWDAIDREEMELDTQTVRRKTNIEVKAFLTVGGAETEVDPAKWDVGVEIAPGQYEIDVGEVEPEYSGD | not soluble |
| IEDEVIYSKKRYKLKREIDKLFLDEEYFQIEPQLFEEYDEFTTINNKIPEESMVKVVNGKVMVLRADITTSIIKSLVPRWEDGLKLKLFYNSSIYKNKNTVGIKEIRQIGCEYLGEASVEADREVVKLALKILEKYNNNFILEVGSSKYIHGLLEELNLNKNCENQIKNLLYTKNTHELKVYIEELKIKHEVKELLSNILSLQGNLYNVIEKSNKFYCNNKMKQALEELKQVNNLIEECNFLDKARFDLSMITMLDYYEGIMFRGYYPNSYKEILSGGRYDSLTKEYGKEIPAIGFTLSVDELMKYVYK | not soluble |
| MAGFMKNAMSYLGMSDVVDDEDDYIEEDEEQKPASKSAFDSDHTVTPLASTTAPAASSTTKPFPGGRVNRITTIHPKSYEDAQLVGRALRDGVPVVLNLTGVAEAVAYRIVDFSAGVVFGVRGSLERVTPRVFLLSPAQVNIKVEEPTKPASAHDLFADAAALEHHHHHH | not soluble |
| MQADFNRPVLAVDTGTSYLSLALRADGETCLFHQEVGSRQSALILPEIRTLFHDAGITAADLGAIVYAKGPGAFTGLRIGIGVAQGLATPFDTPLIGVPSLDAAASLPPPQSCILAAADARMGEVFYAWFDTLNRRRLSDYQVGRAADIRLPEGCAFSDGIGNAFALENRPPFSGKPDMPTAADFLNLAAEGGFPAVAAAHAELLYVRNKIALTAKEQAERRARLLEHHHHHH | not soluble |
| KKDFTWNATVNFSSNQSKVLSLGAETQMLEGRPVGSASGSENVLIKKGYPLGLFYGLQMEGIRSNWHSDYNGIGSADSPWWYATEREMPYGFPSFADTNGDGKVDMSDRVVIGDVNPVFIGGLNTRLRWKFIELAMDFSWSYGNDIINGNVYNLMNNGDIRNKSAVYYKDAWFANNPTGTFTGPGAIDWSGYMWAASNSEMVEDGSFLKMNNLAVTFRMPKNILKAWKIKDLALTYTINNVFCLTNYSGYDPEVRSGSSVNNRILPGVDISAYPYARSHIFSLNFKY | not soluble |
| MAHHHHHHMAHAVGFACPHMADPSMVRNVIGVRGRALSVVVDSTNAAMAARKHYDCDDIYGMELQDQNGDGSTLESHWSQRHAKDELMAPIGGAGDHTELTLAAFAELGCMRVNWKLAEPMGWGKKSGCELLQSKRSAPNMSEYSHIFCNRDEVVERCASDRYSRGFCRRSIIEFSKQHSMDSCPIIDPAMDVRDLEAVFEKEEYLSARPGDKPSSWCLDTLPTNTTDARYPEETYLSAATQAELKCLGMQVHLKNPEKRNVRWLPCTEEETITWDTPPYNKENVICPKYAEVCTISATGGSVIPVVSWDGEARVWSRTVPPASTGQGLPGASVPVAESIDPGRGTHTKDVVTAIPERNLLLQGPWRLSVLLLLLE | soluble |
| MNIAVASGKGGTGKTTVAVNLAASYAMQGLPVTLVDCDVEEPNAHLFVDARWQVRSLCGVPVPAIDPDRCLGESCRRCVEACRFKALAMLGGELLVFAELCHGCGLCELVCPAGVVGTASRPVGEVRQGVASCHVHGETCHMAFRDGVLRVGEAMATPLIKAVKRTAEDANATSHAGYGVTLWDCPPGTACATINALDEADFVVLVAESTAFGLHDLRLAVGLVCHLGLPHGIVINRFGMGDDRVATWAASEGIDVLGRLPFSLEAASRNAGGGLLLDASHDLEAAYRDLGARLLEKGIRSLEHHHHHH | not soluble |
| MVICLSTEISLVAATLNEIGNIATFLDKVEKELIYYNFEIIIVDDNSSDGTKEYLAERSLKDKNLHVIENPYRVGMLGSLKMGINSAKGKYCIVMDADLQHPPEAILSIIERLNHGCDIVVGSRYVNGGSAGDRNSYRALLSIGAQYLSYLFLRSARSTTDPMSGFFGFQTSMNHDFSYKNRFKLTDMGAKILLLLLAENQNCNVCDVGYVFRSRERGKSKIVSGMSFLERYMSELLDAMIVERQWKNRGCLEHHHHHH | not soluble |
| MSLSESVIADFVGKFNSEVAGRGDPIRGRVVLSQKRLVLAASEDDKLTIPLDSIFDIAVGQVPPDLGDFFDSTVTIAFEHRGKRLVAAIEAGDEKIEKFGTVLFKAIINGTETTVKERARVGGRVTEESFKTAKLFLTPGNVEFRRSDGSFNVDLKTVSDFDRNTREINGKGRPVLTVRHMKDGTAMTTLAAMASNRKMSILGRYLRREYAELMEEIEDVDLTKDKKEVLVAMYSTGDMDGMPLASILGKDSSQVSMILQDLAADGLVQDGSDGPTLTPTGKVVASRHLEDVNAEGHHHHHH | not soluble |
| MSPESSNQTTSLSSFLLKCAFPDGTVPINIAPQSLSLSSSPGSYDGDQFSPLMKQHKSRKYDSCTISDDLHDEMKRLKKKEEAFKTALCGFQRRGQKCIYGEQCKFAHSVHELRFTQAKKTHRNYKTVLCDKFSTTGYCKYGARCQFIHRALGSTSTTESAEMADFKLNVESDLSRAFALDYTSFLPNWHCSALLH | not soluble |
| MASSTTFVIVGGGLAGAKAVEALRRSDFGGRIILFGDEEHLPYDRPPLSKEFLAGKKSLSDFTIQTSDWYRDHDVDVRLGVRVSSLDRSAHTVELPDGAAVRYDKLLLATGSAPRRPPIPGSDAAGVHYLRSYNDAVALNSVLVQGSSLAVVGAGWIGLEVAASARQRGVDVTVVETAIQPLLAALGEAVGKVFADLHRDQGVDLRLQTQLEEITAADGKATGLKMRDGSTVAADAVLVAVGAKPNVELAQQAGLAMGEGGVLVDASLRTSDPDIYAVGDIAAAEHPLLGTRVRTEHWANALKQPAVAAAGMLGRPGEYAELPYLFTDQYDLGMEYVGHAPSCDRVVFRGNVAGREFLSFWLDGDSRVLAGMNVNVWDVVDDVKGLIRSGNPVDVDRLVDPQWPLADLTTN | not soluble |
